Results from PMC6689051.

What was measured:
Settings in all cases: 10 mM Tris-HCl pH 7.5, 50 mM KCl, 10 mM MgCl2 (10.1 mM MgCl2 + 0.1 mM EDTA), 23 C; nitrocellulose filter binding, 2 nM-2 uM Fab, 30 min
[1] = test system: Fab HAVx (synthetic (phage display, humanized Fab4D5 framework, YSGRKX library; expressed in E. coli)), PDB:6MWN_2+PDB:6MWN_3; assay: filter binding
P0 = assay: method not stated in excerpt
[2] = test system: best Fab clone from YSGR library (unnamed) (synthetic (phage display, humanized Fab4D5 framework; expressed in E. coli)); assay: filter binding

Substance	Kd [1] [nM]	Kd (P0) [nM]	Kd [2] [nM]
GGCAAACAUCAUUUGGCCUUAAAUGGGAUUCUGUGAGAGGGGAUCCCUCCAUUGACAGCUGGACUGUUCUUUGGGGCCUAUGUGGUGUUUG [HAV dV delU674]	176	–	–
GGCAAACAUCAUUUGGCCUUAAAUGGGAUUCUGUGAGAGGGGAUCCCUCCAUUGACAGCUGGACUGUUCUUUGGGGCCUUAGUGGUGUUUG [HAV dV delU672]	> 1000	–	–
HAV593-720	47	–	–
GGCAAACAUCAUUUGGCCUUAAAUGGGAUUCUGUGAGAGGGGAUCCCUCCAUUGACAGCUGGACUGUUCUUUGGGGCCUUAUGUGGUGUUUG [HAV dV (HAV593-684)]	44	220	290
HAV593-706	49	–	–
GGCAAACAUCAUUUGGCCUUAAAUGGGAUUCUGUGAGACGGGAUCCCUCCAUUGACAGCUGGACUGUUCUUUGGGGCCUUAUGUGGUGUUUG [HAV dV G631C]	58	–	–
